The data set has as its target human apolipoprotein E4.

Sequence of human apolipoprotein E4 (chain, as listed by the source): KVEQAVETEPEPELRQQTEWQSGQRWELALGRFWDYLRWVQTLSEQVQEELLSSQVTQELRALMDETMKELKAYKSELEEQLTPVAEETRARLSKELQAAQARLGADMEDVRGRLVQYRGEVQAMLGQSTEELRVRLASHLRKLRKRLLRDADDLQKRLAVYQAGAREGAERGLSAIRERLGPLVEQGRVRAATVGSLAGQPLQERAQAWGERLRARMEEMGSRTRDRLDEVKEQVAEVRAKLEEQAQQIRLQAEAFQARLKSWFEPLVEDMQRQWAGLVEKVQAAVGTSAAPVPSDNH

B1: endogenous PCSK1 of NSE-apoE4 mouse neurons/brain (protein)
chain: SVQKDSALDLFNDPMWNQQWYLQDTRMTAALPKLDLHVIPVWEKGITGKGVVITVLDDGLEWNHTDIYANYDPEASYDFNDNDHDPFPRYDLTNENKHGTRCAGEIAMQANNHKCGVGVAYNSKVGGIRMLDGIVTDAIEASSIGFNPGHVDIYSASWGPNDDGKTVEGPGRLAQKAFEYGVKQGRQGKGSIFVWASGNGGRQGDNCDCDGYTDSIYTISISSASQQGLSPWYAEKCSSTLATSYSSGDYTDQRITSADLHNDCTETHTGTSASAPLAAGIFALALEANPNLTWRDMQHLVVWTSEYDPLASNPGWKKNGAGLMVNSRFGFGLLNAKALVDLADPRTWRNVPEKKECVVKDNNFEPRALKANGEVIVEIPTRACEGQENAIKSLEHVQFEATIEYSRRGDLHVTLTSAVGTSTVLLAERERDTSPNGFKNWDFMSVHTWGENPVGTWTLKITDMSGRMQNEGRIVNWKLILHGTSSQPEHMKQPRVYTSYNTVQNDRRGVEKMVNVVEKRPTQKSLNGNLLVPKNSSSSNVEGRRDEQVQGTPSKAMLRLLQSAFSKNALSKQSPKKSPSAKLSIPYESFYEALEKLNKPSKLEGSEDSLYSDYVDVFYNTKPYKHRDDRLLQALMDILNEEN
Turning to B1, the “apoE fragmentation by western blot in brains of PCSK1 null, NSE-apoE4 pups” value is on record as “a significant decrease in apoE fragmentation was observed in PCSK1 null, NSE-apoE4 brains compared to that of PCSK1 WT, NSE-apoE4 brains”; the “apoE fragmentation in NSE-apoE4 primary neurons after shRNA knockdown” value is recorded as “knocking down either PCSK1 or PCSK2 in NSE-apoE4 primary neurons decreased apoE fragmentation”; the “apoE fragmentation in PCSK1 null primary neurons” value was “A decrease of apoE fragmentation was observed in PCSK1 null primary neurons compared to PCSK1 wild-type (WT) neurons”.

B2: endogenous PCSK2 of NSE-apoE4 mouse neurons/brain (protein)
chain: GYRDINEIDINMNDPLFTKQWYLFNTGQADGTPGLDLNVAEAWELGYTGKGVTIGIMDDGIDYLHPDLAYNYNADASYDFSSNDPYPYPRYTDDWFNSHGTRCAGEVSAAASNNICGVGVAYNSKVAGIRMLDQPFMTDIIEASSISHMPQLIDIYSASWGPTDNGKTVDGPRELTLQAMADGVNKGRGGKGSIYVWASGDGGSYDDCNCDGYASSMWTISINSAINDGRTALYDESCSSTLASTFSNGRKRNPEAGVATTDLYGNCTLRHSGTSAAAPEAAGVFALALEANLDLTWRDMQHLTVLTSKRNQLHDEVHQWRRNGVGLEFNHLFGYGVLDAGAMVKMAKDWKTVPERFHCVGGSVQNPEKIPPTGKLVLTLKTNACEGKENFVRYLEHVQAVITVNATRRGDLNINMTSPMGTKSILLSRRPRDDDSKVGFDKWPFMTTHTWGEDARGTWTLELGFVGSAPQKGLLKEWTLMLHGTQSAPYIDQVVRDYQSKLAMSKKQELEEELDEAVERSLQSILRKN
As to B2, the “apoE fragmentation after PCSK2 shRNA in PCSK1 null and PCSK1 WT primary neurons” value was “PCSK2 shRNAs or 7B2 shRNAs decrease apoE fragmentation in PCSK1 null, primary neurons as well as in PCSK1 WT primary neurons”; the “apoE fragmentation in NSE-apoE4 primary neurons after shRNA knockdown” value was “knocking down either PCSK1 or PCSK2 in NSE-apoE4 primary neurons decreased apoE fragmentation”.

Values taken from patent publication US9835633.
